Results taken from patent publication US20090022687A1, “Novel Pharmaceuticals That Use Anti-HLA Antibodies” (Chugai Seiyaku Kabushiki Kaisha, priority 2005, published 2009).

Columns and labels:
[1] = system: HLA class I on Daudi cells; assay: Cell surface expression analysis of HLA class I by flow cytometry; format: binding, human; conditions: B-lymphoblastic cells, FITC-labeled mAb
Description: Reactivity of 2D7 mAb in tumor cell lines and myeloma cells derived from multiple myeloma patients were assessed by flow cytometry.
The tumor cell lines used were prepared as follows. The myeloma cell line RPMI 8226, B lymphoblastic cell lines (IM-9, Raji, H S-Sultan, and Daudi), the T lymphoblastic cell line CEM, the chronic myeloid leukemia cell line K562, the lung adenocarcinoma cell line A549, the colon adenocarcinoma cell line COLO 201, and the gastric adenocarcinoma cell line MKN-1 were obtained from the Health Science Resources Bank (Osaka, Japan). The myeloma cell line U266-B1, the B lymphoblastic cell line ARH-77, the T-lymphoblastic cell line Jurkat the breast cancer cell line MCF-7, the hepatocellular carcinoma HepG2, the clear cell renal cell carcinoma Caki-2, and the malignant melanoma MeWo were obtained from the American Type Culture Collection (Manassas, Va.). The EBV-transformed B-cell line YN was a gift from Dr. Yasuhiko Nishioka (The University of Tokushima). These cell lines were cultured in an RPM-1640 medium (Sigma-Aldrich, St. Louis, Mo.) supplemented with 10% fetal calf serum (Gibco BRL, Grand Island, N.Y.) and penicillin (100 U/mL) under a humidified atmosphere of 5% CO2 at 37° C.
(§1) Cell surface expression analysis of HLA class I by flow cytometry was performed as follows using FITC-labeled 2D7 mAb or FITC-labeled anti-HLA-ABC common region mAb (Chemicon, San Diego, Calif.). The cells (5×10^5 cells) were washed twice with PBS, and then incubated on ice for 40 minutes with FITC-labeled 2D7 mAb or FITC-labeled anti-HLA-ABC common region mAb. MM patient-derived BMMCs were incubated on ice for 15 minutes with 2% γ globulin diluted in PBS, and stained with FITC-labeled 2D7 mAb and PE-labeled anti-CD38 mAb (BD Bioscience, San Jose, Calif.) for myeloma cell gating. Next, the cells were washed twice with PBS, and analyzed using an EPICS XL flow cytometer (Beckman Coulter, Japan). In several experiments, the cells were stimulated for 48 hours with IFNα or IFNγ prior to HLA class I expression analysis. HLA class I expression levels were evaluated as GeoMFI using the CellQuest software (BID Biosciences).

IM-9 cells = assay: Cytotoxicity assay (WST-8 cell viability); format: cell-based, human; conditions: IM-9, 24 hours after cross-linking with the secondary antibody
Description: (§2) In other experiments, cells were cultured with 2D7-DB in the absence of the goat anti-mouse IgG antibody. Cell viabilities were determined by WST-8 assays or Trypan Blue exclusion assays. […] (B) The morphological observations of myeloma cells after 2D7-DB treatment are shown. Purified MM cells derived from patient No. 18 were cultured for 24 hours in the presence (1 μg/mL) or absence of 2D7-DB. Next, cells were fixed on glass slides and stained with light Giemsa (original magnification,×1000). (C) A graph indicating the cytotoxic activity of 2D7-DB on the patients' MM cells is shown. CD138-positive MM cells were purified from six patients, and the cells were cultured for 24 hours with 2D7-DB (0.1 or 1μg/mL). Cell viabilities were determined by Trypan Blue exclusion assays.
Cytotoxicity assays were performed as follows. […] Cell viabilities were measured by WST-8 assays (Kishida Chemical, Osaka, Japan) for the cell lines, and by Trypan Blue dye exclusion assays for patient-derived primary MM cells. Apoptosis induction was assessed by flow cytometric analysis with Annexin V and PI staining (MEBCYTO apoptosis kit MBL, Nagoya, Japan).
Next, cytotoxic effects of single chain Fv-type 2D7 mAb (2D7-DB) on MM cell lines and patient-derived MM cells were assessed. […]

HLA-A on lymphocytes = assay: HLA-A expression in BMMCs of MM patients (flow cytometry, FITC-labeled 2D7 mAb); format: binding, human; conditions: BM samples of 22 MM patients, mean±SD
Description: (§3) After cell gating (R1: CD38-positive MM cells; R2: myeloid cells; and R3: lymphocytes), each cell population was evaluated for HLA-A expression. (B) BMMCs derived from 22 MM patients were analyzed for HLA-A expression.
(§4) Patients' MM cells were prepared as follows. First clinical disease stage classification and diagnosis of MM patients were performed according to the Durie and Salmon classification (Durie, B. CT, and S. E. Salmon. 1975. “A clinical staging system for multiple myeloma. Correlation of measured myeloma cell mass with presenting clinical features, response to treatment, and survival,” Cancer, 36:842-854). Bone marrow samples were collected from patients after obtaining informed consent upon approval by the ethics committee of The University of Tokushima. The bone marrow mononuclear cells (BMMCs) were separated by Ficoll-Hypaque (density of 1.077) centrifugation. Patient-derived MM cells were further purified from BMMCs using CD138 microbeads (Miltenyi Biotec, Auburn, Calif.).
as §1, with “In several experiments, the cells were stimulated for 48 hours with IFNα or IFNγ prior to HLA class I expression analysis.” left out
(§5) Next, HLA-A expression in BMMCs of MM patients was examined. […] After gating the cells according to their side-scattered light profile and CD38 expression, each of the cell populations comprising myeloma cells, myeloid cells, and lymphocytes was analyzed for HLA-A expression. […]

HLA-A on myeloid cells = assay: as above; format: binding, human; conditions: BM samples of 22 MM patients, mean±SD
Description: as §3, §4
as §1, with “In several experiments, the cells were stimulated for 48 hours with IFNα or IFNγ prior to HLA class I expression analysis.” left out
as §5

HLA-A on myeloma cells = assay: as above; format: binding, human; conditions: BM samples of 22 MM patients, mean±SD
Description: as §3, §4
as §1, with “In several experiments, the cells were stimulated for 48 hours with IFNα or IFNγ prior to HLA class I expression analysis.” left out
as §5

patient-derived MM cells = assay: Cytotoxicity assay (Trypan Blue dye exclusion), patient-derived primary MM cells; format: cell-based, human; conditions: newly isolated MM cells, in the presence of a secondary antibody
Description: as §2, with “In other experiments, cells were cultured with 2D7-DB in the absence of the goat anti-mouse IgG antibody.” left out
Patients' MM cells were prepared as follows. First clinical disease stage classification and diagnosis of MM patients were performed according to the Durie and Salmon classification (Durie, B. CT, and S. E. Salmon. 1975. “A clinical staging system for multiple myeloma. Correlation of measured myeloma cell mass with presenting clinical features, response to treatment, and survival,” Cancer, 36:842-854). […]
Cytotoxicity assays were performed as follows. […] Cell viabilities were measured by WST-8 assays (Kishida Chemical, Osaka, Japan) for the cell lines, and by Trypan Blue dye exclusion assays for patient-derived primary MM cells. […]

B1: 2D7: monoclonal antibody obtained by immunizing human myeloma cells; recognizes HLA class I (HLA-A) (antibody, V domains shown)
VH: QVQLQQSGPELVKPGASVKMSCKASGYTFTDYFIHWVKQRPGQGLEWIGWIFPGDDTTDYNEKFRGKTTLTADKSSSTAYILLSSLTSEDSAMYFCVRSDDFDYWGQGTTLTVSS
VL: QIVLTQSPAIMSASPGEKVTITCSASSSVSYMHWFQQKPGTFPKLWIYSTSNLASGVPTRFSGSGSGTSYSLTISRMEAEDAATYYCQQRTSYPPTFGSGTKLEIK
Expression (geometric mean fluorescence intensity) [1]: 2 | inhibition of cell viability (IM-9 cells): more efficiently than W6/32, B9.12.1, and JOAN-1 | HLA expression level, geometric mean fluorescence intensity (GeoMFI) (HLA-A on lymphocytes): 91±44 | HLA expression level, geometric mean fluorescence intensity (GeoMFI) (HLA-A on myeloid cells): 201±209 | HLA expression level, geometric mean fluorescence intensity (GeoMFI) (HLA-A on myeloma cells): 1309±1130 | cell viability (patient-derived MM cells): inhibited
